From patent publication US20070065439A1 (Amgen, published 2007)

Experiments:
[1] = biological target: T1, Recombinant human IL-1beta (rhIL-1b) (human, UniProt P01584 117-269); assay: KinExA, dual curve analysis
T1 construct: R&D Systems Cat. No. 201-LB/CF; also called IL-1β; human IL-1β

IL-1β H30A mutant [2] = biological target: T2, IL-1β H30A mutant (human, UniProt P01584 117-269); assay: binding to site-directed IL-1β mutants
T2 construct: site-directed mutant

[3] = biological target: T1, Recombinant human IL-1beta (rhIL-1b); assay: Biacore, Low Resolution screen
[4] = biological target: T1, Recombinant human IL-1beta (rhIL-1b); assay: cell-based or functional assay
[5] = biological target: T1, Recombinant human IL-1beta (rhIL-1b); assay: Biacore low-res, mAb captured, 25C; IL-1β in solution (118 nM) over captured mAb; low-resolution Biacore, 25 C
[6] = biological target: T1, Recombinant human IL-1beta (rhIL-1b); assay: cell-based or functional assay; remark: listed apart in the source
[7] = biological target: T1, Recombinant human IL-1beta (rhIL-1b); assay: cell-based or functional assay; remark: listed apart in the source
[8] = biological target: T1, Recombinant human IL-1beta (rhIL-1b); assay: KinExA, single KD-controlled titration
[9] = biological target: T1, Recombinant human IL-1beta (rhIL-1b); assay: cell-based or functional assay; remark: listed apart in the source
[10] = biological target: T1, Recombinant human IL-1beta (rhIL-1b); assay: Biacore high-res, mAb amine-coupled, 23C
[11] = biological target: T1, Recombinant human IL-1beta (rhIL-1b); assay: Biacore, Medium Resolution; IL-1β in solution; medium-resolution Biacore
IL-1β R11A mutant [12] = biological target: T3, IL-1β R11A mutant (human, UniProt P01584 117-269); assay: binding to site-directed IL-1β mutant; X = abrogation of binding
T3 construct: site-directed mutant

IL-1β R4A mutant = biological target: T4, IL-1β R4A mutant (human, UniProt P01584 117-269); assay: as above
T4 construct: site-directed mutant

[13] = biological target: T1, Recombinant human IL-1beta (rhIL-1b); assay: KinExA, triple curve analysis
IL-1β H30A mutant [14] = biological target: T2, IL-1β H30A mutant; assay: binding to site-directed IL-1β mutant; X = abrogation of binding
[15] = biological target: T1, Recombinant human IL-1beta (rhIL-1b); assay: KinExA direct kinetic method
IL-1β R11A mutant [16] = biological target: T3, IL-1β R11A mutant; assay: binding to site-directed IL-1β mutants
[17] = biological target: T1, Recombinant human IL-1beta (rhIL-1b); assay: calculated as kon x KD from KinExA
[18] = biological target: T1, Recombinant human IL-1beta (rhIL-1b); assay: Biacore low-res, mAb captured, 25C; poor fit to 1:1 model; IL-1β in solution (118 nM) over captured mAb; low-resolution Biacore, 25 C; poor fit to 1:1 model
[19] = biological target: T1, Recombinant human IL-1beta (rhIL-1b); assay: Biacore low-res, mAb captured, 25C; IL-1β in solution (118 nM) over captured mAb; low-resolution Biacore, 25 C; poor fit to 1:1 model
[20] = biological target: T1, Recombinant human IL-1beta (rhIL-1b); assay: Biacore, Low Resolution screen; complex kinetics
[21] = biological target: T1, Recombinant human IL-1beta (rhIL-1b); assay: Biacore, Medium Resolution; complex kinetics; IL-1β in solution; medium-resolution Biacore; complex kinetics
[22] = biological target: T1, Recombinant human IL-1beta (rhIL-1b); assay: Biacore high-res, mAb amine-coupled, 23C, long association and dissociation, IL-1β 55 pM
[23] = biological target: T1, Recombinant human IL-1beta (rhIL-1b); assay: Biacore, Medium Resolution; IL-1β in solution; medium-resolution Biacore; complex kinetics

| Binder | binding result (IL-1β H30A mutant [2]) | Kd [3] [pM] | EC50, inhibition of IL-1β-induced IL-8 production in human whole blood [4] [pM] | Kd [5] [pM] | koff [5] [s⁻¹] | kon [5] [M⁻¹ s⁻¹] | EC50, inhibition of IL-1β-induced IL-6 production in MRC-5 cells [6] [pM] | In Vivo Potency EC50, inhibition of IL-6 induced in mice by human IL-1β [7] [pmoles/mouse] | Kd [8] [pM] | % IL-6 production, supernatant 1:5 dilut. [9] [%] | % IL-6 production, supernatant 1:10 dilut. [9] [%] | % IL-6 production, supernatant 1:20 dilut. [9] [%] | Kd [11] [pM] | koff [11] [s⁻¹] | kon [11] [M⁻¹ s⁻¹] | binding result (IL-1β R11A mutant [12]) | binding result (IL-1β R4A mutant) | Kd [13] [pM] | other results |
| --- | --- | --- | --- | --- | --- | --- | --- | --- | --- | --- | --- | --- | --- | --- | --- | --- | --- | --- | --- |
| 9.5.2 IgG2 (antibody, V domains shown, also called mAb 9.5.2 (IgG2 isotype); 9.5.2 IgG2λ) VH: EVQLVESGGGLVKPGRSLRLSCTGSGFTFGDYALNWFRQAPGMGLEWVGFIRGKAYGGTTEYAASVKGRFTISRDDSKSIAYLQMNSLKTEDTAVYYCNREVEYCRSSENYCYGMDVWGQGTTVTVS VL: not shown | – | – | 69 | – | – | – | 4 | 8 | 0.041 | – | – | – | – | – | – | – | – | 0.204 | – |
| 9.5.2 IgG1 (antibody, V domains shown) VH: EVQLVESGGGLVKPGRSLRLSCTGSGFTFGDYALNWFRQAPGMGLEWVGFIRGKAYGGTTEYAASVKGRFTISRDDSKSIAYLQMNSLKTEDTAVYYCNREVEYCRSSENYCYGMDVWGQGTTVTVS VL: not shown | – | – | 106 | – | – | – | 1 | 5 | – | – | – | – | – | – | – | – | – | – | – |
| 9.54.1 (antibody, human IgG4, V domains shown, lambda; also called 9.54.2) VH: QVQLVESGGGVVQPGRSLRLSCAASGFTFSSFGMHWVRQAPGKGLEWVAVIWYDGSNKYYADSVKGRFTISRDNSKNTLYLQMNSLRAEDTAVYYCARDPNYDILTGYYYYGMDVWGQGTTVTVS VL: SSELTQDPAVSVALGQTVRITCQGDILRTYYASWYQQKPGQAPVLVIYGKNDRPSGIPDRFSGSSSGNTASLTITGAQAEDEADYYCDSRDNTVTHLVFGGGTKLTVL | – | 370 | – | 370 | 0.00085 | 2.3e+06 | 11600 | – | – | 5 | 21 | 36 | 140 | 0.00035 | 2.5e+06 | no binding | – | – | binding result (IL-1β H30A mutant [14]): no binding |

Now from value to binder, other results behind:

| binding result (IL-1β H30A mutant [2]) | Kd [3] [pM] | EC50, inhibition of IL-1β-induced IL-8 production in human whole blood [4] [pM] | Kd [5] [pM] | koff [5] [s⁻¹] | kon [5] [M⁻¹ s⁻¹] | EC50, inhibition of IL-1β-induced IL-6 production in MRC-5 cells [6] [pM] | In Vivo Potency EC50, inhibition of IL-6 induced in mice by human IL-1β [7] [pmoles/mouse] | Kd [8] [pM] | % IL-6 production, supernatant 1:5 dilut. [9] [%] | % IL-6 production, supernatant 1:10 dilut. [9] [%] | % IL-6 production, supernatant 1:20 dilut. [9] [%] | Kd [11] [pM] | koff [11] [s⁻¹] | kon [11] [M⁻¹ s⁻¹] | binding result (IL-1β R11A mutant [12]) | binding result (IL-1β R4A mutant) | Kd [13] [pM] | Binder | other results |
| --- | --- | --- | --- | --- | --- | --- | --- | --- | --- | --- | --- | --- | --- | --- | --- | --- | --- | --- | --- |
| binds | 278 | 1670 | 278 | 0.0005 | 1.8e+06 | 216 | 51 | 19 | 1 | 3 | 6 | 180 | 0.00057 | 3.1e+06 | no binding | no binding | – | 5.5.1 (antibody, IgG4, V domains shown, lambda; also called mAb 5.5.1; Ab 5.5.1) VH: QVQLVESGGGVVQPGRSLRLSCAASGFTFSSYGMHWVRQAPGKGLEWVAVIWYDGDNKYYADSVQGRFTISRDNSKNTLYLQMNSLRPEDTAVYYCARERSSSWYFDYWGQGTLVTVSS VL: QSALTQPASVSGSPGQSITISCTGTSSDVGSYNLVSWYQQHPGKAPKLMIYEVSKRPSGISNRFSGSKSGNTASLTISGLQAEDEADYYCCSYAGSSTWVFGGGTKLTVL | Kd [1]: 20 pM; Kd [10]: 44.7 pM; koff [10]: 0.000704 s⁻¹; kon [10]: 1.57e+07 M⁻¹ s⁻¹ |
| binds | – | 135 | – | – | – | 4 | 5 | 0.04 | 0 | 0 | 0 | – | – | – | – | no binding | 0.181 | 9.5.2 IgG4 (antibody, V domains shown, also called mAb 9.5.2; mAb 9.5.2 (IgG4 isotype)) VH: EVQLVESGGGLVKPGRSLRLSCTGSGFTFGDYALNWFRQAPGMGLEWVGFIRGKAYGGTTEYAASVKGRFTISRDDSKSIAYLQMNSLKTEDTAVYYCNREVEYCRSSENYCYGMDVWGQGTTVTVS VL: not shown | kon [15]: 3.4e+06 M⁻¹ s⁻¹; binding result (IL-1β R11A mutant [16]): binds; koff [17]: 6.1e-07 s⁻¹; Kd [18]: 1640 pM; koff [19]: 0.0018 s⁻¹; kon [19]: 1.1e+06 M⁻¹ s⁻¹; Kd [20]: 1640 pM; Kd [21]: 130 pM; Kd [22]: 1.5 pM; koff [22]: 1.1e-06 s⁻¹; kon [22]: 710000 M⁻¹ s⁻¹; koff [23]: 0.00035 s⁻¹; kon [23]: 2.6e+06 M⁻¹ s⁻¹ |
